Reference: the DeepSol protein solubility set

Assay: soluble on expression in E. coli; label from the status in PepcDB or PDB records

| Sequence | soluble on expression in E. coli |
| --- | --- |
| MTDESDALCATEKEIMHATHRALVNSGYAELSISRISDELDKAKSTIYHYYDSKDALLLRFLRFTVDRFEATINTSIGDNPKEDLNHIISTLLPCQLPEEKRQLHSVLVTLSPQALERAVFREQFTEIDTRLATIIEKTVRRGVDADVFRDVDPTHAAEHILATIKGTMYSRLTTNREAATAAAKASLFSYIDSHLIS | not soluble |
| PLQFHSVHGDNIRISRDGTLARRFESFCRAITFSARPVRINERICVKFAEISNNWNGGIRFGFTSNDPVTLEGTLPKYACPDLTNRPGFWAKALHEQYCEKDNILYYYVNGAGDVIYGINNEEKGVILTGIDTRSLLWTVIDIYGNCTGIEFLDSRIYMYQ | soluble |
| MAHHHHHHMVENKSKVKDISLAPFGKMQMEISENEMPGLMRIREEYGKDQPLKNAKITGCLHMTVECALLIETLQKLGAQIRWCSCNIYSTADYAAAAVSTLENVTVFAWKNETLEEYWWCVESALTWGDGDDNGPDMIVDDGGDATLLVHKGVEYEKLYEEKNILPDPEKAKNEEERCFLTLLKNSILKNPKKWTNIAKKIIGVSEETTTGVLRLKKMDKQNELLFTAINVNDAVTKQKYDNVYGCRHSLPDGLMRATDFLISGKIVVICGYGDVGKGCASSMKGLGARVYITEIDPICAIQAVMEGFNVVTLDEIVDKGDFFITCTGNVDVIKLEHLLKMKNNAVVGNIGHFDDEIQVNELFNYKGIHIENVKPQVDRITLPNGNKIIVLARGRLLNLGCATGHPAFVMSFSFCNQTFAQLDLWQNKDTNKYENKVYLLPKHLDEKVALYHLKKLNASLTELDDNQCQFLGVNKSGPFKSNEYRY | soluble |
| MPFKDQLFLASQYLAPHHLVSRLMGRAADCRAPEIKNRMIARFVRRYNVDMSEALVEDPLAYASFNDFFTRALKPDARPLDDEPGAALCPADGAISQIGAIDNGRIFQAKGHSFGLTDLLGGDAERAAPFAGGQFATIYLSPRDYHRVHMPLAGTLREMVHVPGRLFSVNPLTARSVPELFARNERVACLFDTEHGPMALVLVGAMIVASIETVWAGLVTPHKRQVRSVRYDAAARAPIHLDKGAEMGRFKLGSTVIVLFGPKRLRWLDLPSVRGPVRMGETLALPASTAISFPESELEHHHHHH | not soluble |
| MTDPSSSPIRPDMVEAARKFMLTPKVKETPFEEQRQFLLGKGVSEAEILEARASIPPEQLRSQIGTENMIPIGGHPQMMIAPKQNGIVSFAQSAVVLGSISYAGYRFVRSYVLPRFFDIPDPATEEIRQLQSQVDDLQNSIKFIMDSVSQTTQQLATQQSEISRALYSVANRDADLNRVESGISTIKSLLLSQHNFAPIVTPSVTSSIPSWQQSATPTSATSITTTTTSEAASGYATPPANFKESSLADELADIENIE | not soluble |
| MSLSRQCVLAGISRAALYARRKPKRIVQDDELLLRLIDEEYTRHPFYGSRKMVVHLGRCGHSVNRKWAQRLMRSLGLAGMAPGPNTSRAHPQHKVYPYLLRGVAISRPNQVWSTDITYIRLARGFAYLVAVIDWYSRRVLSWRISNSMETVFCVDCLEEALRIHGKPEVFNTDQGSQFTSEAFTSVLKREGVIISMDGRGRALDNIFVERLWRSVKHEDVYLKGYSAMGELLIGLTQYFTFYNGERPHQALKNLTPDVVYQRAQGGGAMIVDKYGAAQSLPMALRSTGTAFDEVRLALLCHVTHADAGLSWRCSEGTERKSRDEAWREGHHHHHH | not soluble |
| MEVTVMPAAAPVQKQQGLNQIVINKVQKMIEGKQQGVMATITRLLEEGKIAQDFIAPIGVNLRNEDRHPVITFQAEEQVQMNMPEGNFNLHGNAISQISEKMGIPAKYLRELSAGDAWQKQLCATILNEHSGWTGRTRVLIRAVGTEIRGVLSDSYRRLNSVDILTAFIREAANNGAVVSDAYMNDTKVWCETILPTPVEIPTRKNGTVIIFAGARFSTSDFGNGSVDMRSFLLNGACLNGMVRESVMRQIHLGGRLPDTLALSQRTYELDTKTTVSAVKDLTKGLYSKNTIMQKAIEIQGASEIDVDFDKELKSLVQRGALLKNEGREVEKLLMNNNPDDGITGGATLWKLAQGITAFAREQEPERSRELHEISGQLMNRVKNN | not soluble |
| MAQIIDFFAAFRGYYSDGSTFIQIISLGSHHNLSVHISERMLSESGIKLGNFLSATVSLAEHPKNFQLKRLNLQVTVEGNFAKVHGIEANLEKNADGILVFSTNNFASAKATNQGLEIGRYKITVQAVKPSEKDLFNGMKFFGTVEEKISGLTRRVASNNTNQVIGEGFRNMSISGKRTVS | not soluble |
| MSLMAVNVNTNVAAMTAQRYLTGATNAQQTSMERLSSGFKINSAKDDAAGLQISNRLNVQSRGLDVAVRNANDGISIAQTAEGAMNETTNILQRMRDLSLQSANGSNSKSERVAIQEEITALNDELNRIAETTSFGGNKLLNGTFSTKSFQIGADNGEAVMLTLKDMRSDNRMMGGTSYVAAEGKDKDWKVQAGANDITFTLKDIDGNDQTITVNAKEGDDIEEVATYINGQTDMVKASVNEKGQLQIFAGNNKVTGDVAFSGGLAGALNMQAGTAETVDTIDVTSVGGAQQSVAVIDSALKYVDSHRAELGAFQNRFNHAISNLDNINENVNASKSRIKDTDFAKETTALTKSQILSQASSSVLAQAKQAPNAALSLLG | soluble |
| VSYVSVLPATLATAATEVARIGSALSLASAVAAAQTSAVQAAAADEVSAAIAALFSAHGRDFQALSARAAAFHHEFVQALAAGAGSYAVAEIAAASPLQSLIDVFNAPIQAATGRPLIGNGANGQPGTGAPGGPAGG | soluble |
| MTDIISQNENKDDFEDGELPEDGEICDDEDESVKAVPSKSSESAPGAHIAPAHPEKTSGRDSRERVRRFEGNSPPRERDPDPFGSHNDAPDGNDYFGGDKDYRSGAAASSEEEPFSDTDYRVNRRRRLSPSHDDGDFDPRSKRPYYGGRGGFRGGFRNGAKPRFQTEHQICKFFREGYCRDGDNCLYSHQAEDSLRRPVLCNFYANSFCKKGLQCLMLHGEFPCKSFHKGQCNHDPCRFSHVPLTDYTRPIIEKILADEEARQAHQAQQAQTYRQNPVANAAAAAAAAQVMPRRRVLLPGGPNMNGSSPPHATPVIHAPIPQASHPSQLPPPAVVVPTIQRNPGPGIPIHQQYPVAPAAGGYFNQGPRPEQVQGLPPPRTIEPPRLSTQTPPIMHQQQPQLMRPMHPVPIQHPHLQQPGLVQPPQIVSQERHTASPQGFNLEAMLNKMANGEKLISSPRNNVVDDSPASPPPSNYSSMFGSSNRVAVIPQTVQVTWGLVRVQRRLPYSNVENPDRIAANDPRRAKAIAKQFDAFSSLLGAGGNAVSDPRLRAQKEKNDRQQNTMPFSSWMPQIS | not soluble |
| MTETEQEAFADLVAELETQTAEAVKAFSKVFDRMEETNDDKEGLSLLKLKNYEMTAYLGELTVLMSKMMKGESITVEPSVKRALKHRVFIEKMKPVEDKMKPQIEKLLGRSSAESGASNGSSKGNHRVRLDNMDVEGDEEEEEEDEDDEEGKGAKEVKKYVAPRIRAVRYEEEDEAPNKQQEKAKRRAMQSSLIMELKNQYSDAPEEIREMSEKKYQYDRERERYEEDNFTRIRLNKDQKRRSEQLGRSETLDDLLSFGDYMMRGEDGRALSEGNKRKRATSSGAGGDTKRHKKSQKERKKAAKGKKEGRKRAIRRRQ | not soluble |
| MDGYQLTFSNNKRSDKSIVSEKLQRDCDPPITQKYFWSSGGHTFHFRAAAAEKNVTPFSTKMQGKYIKKKAM | not soluble |
| VLSRIQFVSRFGSNLVHIEGVKGSGKSWLAQRYLEKWCDDADQVLLMCHPNQSIQQQRGIILKQVVRDPLFNESDSVVDSVGRMLAGEKCNLVLAIDDAHLLSSELLSELWLLVQKAQSAPNWQINILLFAEKGKLTQTLSQMSYGQDNKPVDIDINP | not soluble |
| MQIGANSLLQEMQSLKGEVTPSFGISPNNIVQQVNNTSGADFGQLLSQAIGNVSGLQSTSSNLATRLDMGDTTVSLSDSVIAREKASVAFEATIQVRNKLVEAYKEIMSMPV | not soluble |
| MKVGIVGGGIVGLFTAYYLAKEGIKDIIIYEKGFLGAGSIHAAGLIEPYRFDKINTLSMIKKMLKYKMNGSTDIKEVDKLWLVELIKNLEKDPPGEAWDTMREMAKFSLSEYKRIAEEKNDFDYHEDGLLELYYNSKEFESGIEDEKKSPFNPKFEIEEIKGFAGGLFFPELSRISTEKFIDRISREIVSNIKVKNEEVIKVSDEGYIDGEKYDLVVVAAGIWSRILKIPLTAFKGYGYRVKGVSKLNRAAVIVDYGLAISPLSDHIKITGGFDADFSIDSKRAEDFLKKAEELVDIQYIIDLNMGFRPCSPDGFPVIGKRNNLVLVTGACRLGWSYGPAMGRYATDLALGKAKDLGYISRYYHELEHHHHHH | not soluble |
